Tests used:
[1] = biological target: T1, gD tagged human FcRH4 on SVT2 cells (human, UniProt Q96PJ5 20-515); test: FACS, SVT2.MSCV.gD.FcRH4 cells, PE secondary antibody
T1 construct: whole, on cells; also called huFcRH4; IRTA1; not shown: gD tag; the construct for this FcRH is not described
T1 sequence (looked up): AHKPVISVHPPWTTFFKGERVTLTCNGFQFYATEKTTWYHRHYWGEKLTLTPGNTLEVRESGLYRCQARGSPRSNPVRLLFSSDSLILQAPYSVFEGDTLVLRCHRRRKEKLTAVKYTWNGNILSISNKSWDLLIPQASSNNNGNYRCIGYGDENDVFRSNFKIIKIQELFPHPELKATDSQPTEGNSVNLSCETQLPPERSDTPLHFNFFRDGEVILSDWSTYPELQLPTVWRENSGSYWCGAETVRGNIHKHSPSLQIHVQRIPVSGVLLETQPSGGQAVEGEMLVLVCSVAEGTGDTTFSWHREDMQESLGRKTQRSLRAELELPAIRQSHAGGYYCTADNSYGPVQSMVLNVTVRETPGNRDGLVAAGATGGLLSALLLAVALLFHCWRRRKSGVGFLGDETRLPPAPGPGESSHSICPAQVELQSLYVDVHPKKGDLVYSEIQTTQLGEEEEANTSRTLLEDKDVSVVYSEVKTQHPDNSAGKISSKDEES

[2] = biological target: T2, cynomolgus FcRH5 on stably transfected SVT2 cells (cynomologous monkey); test: Scatchard analysis: 0.5 nM 125I-labeled antibody competed with the unlabeled antibody (50 to 0.02 nM) on SVT2.cyFcRH5 cells, 4 h at 4 C; St. Error 0.064
T2 construct: also called cyno FcRH5; cynoFcRH5
T2 chain: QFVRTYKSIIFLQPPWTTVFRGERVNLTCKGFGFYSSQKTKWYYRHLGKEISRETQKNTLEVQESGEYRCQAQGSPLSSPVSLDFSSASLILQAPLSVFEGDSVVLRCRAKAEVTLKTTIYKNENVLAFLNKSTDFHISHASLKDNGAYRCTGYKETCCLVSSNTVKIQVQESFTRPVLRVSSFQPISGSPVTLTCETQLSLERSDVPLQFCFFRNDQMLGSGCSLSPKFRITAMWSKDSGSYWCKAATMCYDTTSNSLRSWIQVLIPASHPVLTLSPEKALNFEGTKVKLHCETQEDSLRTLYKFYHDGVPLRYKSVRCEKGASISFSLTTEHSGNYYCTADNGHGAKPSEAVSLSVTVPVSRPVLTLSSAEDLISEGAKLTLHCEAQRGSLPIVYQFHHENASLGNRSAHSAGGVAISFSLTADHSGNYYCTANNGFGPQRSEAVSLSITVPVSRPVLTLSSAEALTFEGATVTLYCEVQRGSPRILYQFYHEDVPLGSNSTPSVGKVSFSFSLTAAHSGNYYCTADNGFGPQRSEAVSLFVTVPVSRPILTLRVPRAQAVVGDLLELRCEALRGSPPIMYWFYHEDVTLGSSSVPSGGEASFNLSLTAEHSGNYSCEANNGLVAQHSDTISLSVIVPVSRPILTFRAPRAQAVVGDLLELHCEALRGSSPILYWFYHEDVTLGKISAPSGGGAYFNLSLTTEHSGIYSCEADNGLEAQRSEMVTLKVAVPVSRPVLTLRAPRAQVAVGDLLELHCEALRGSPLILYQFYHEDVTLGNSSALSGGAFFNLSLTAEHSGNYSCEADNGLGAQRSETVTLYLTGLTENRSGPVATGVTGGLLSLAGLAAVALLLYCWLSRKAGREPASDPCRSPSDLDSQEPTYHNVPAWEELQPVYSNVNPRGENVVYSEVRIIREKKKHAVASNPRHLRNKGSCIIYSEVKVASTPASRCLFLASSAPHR
Experimental: To further determine binding of the FcRH5 murine antibodies and IgG clones, binding of iodinated IgG variants to OPM2 cells expressing human FcRH5 and SVT2 cells expressing cynomologous FcRH5, Scatchard analysis was performed (Table 9A).
For Scatchard analysis, 0.5 nM I¹²⁵ labeled murine or IgG clone anti-FcRH5 was competed against unlabeled murine or IgG clone anti-FcRH5, respectively, ranging from 50 to 0.02 nM (12 step 1:2 serial dilution) in the presence of a transfected OPM2 line stably expressing human-FcRH5 and a transfected SVT2 line stably expressing cynomologous-FcRH5. After a four hour incubation at 4° C., cells were washed and cell pellet counts were read by a gamma counter (1470 WIZARD Automatic Gamma Counter; Perkin Elmer, Walthem, Mass.). All points were done in triplicate and counted for 10 minutes. The average CPM was used for Kd calculation using the New Ligand (Genentech, South San Francisco, Calif.) program.

[3] = biological target: T3, gD tagged human FcRH6 on SVT2 cells (human, UniProt Q6DN72 20-434); test: FACS, SVT2.MSCV.gD.FcRH6 cells, PE secondary antibody
T3 construct: whole, on cells; also called huFcRH6; not shown: gD tag; the construct for this FcRH is not described
T3 sequence (looked up): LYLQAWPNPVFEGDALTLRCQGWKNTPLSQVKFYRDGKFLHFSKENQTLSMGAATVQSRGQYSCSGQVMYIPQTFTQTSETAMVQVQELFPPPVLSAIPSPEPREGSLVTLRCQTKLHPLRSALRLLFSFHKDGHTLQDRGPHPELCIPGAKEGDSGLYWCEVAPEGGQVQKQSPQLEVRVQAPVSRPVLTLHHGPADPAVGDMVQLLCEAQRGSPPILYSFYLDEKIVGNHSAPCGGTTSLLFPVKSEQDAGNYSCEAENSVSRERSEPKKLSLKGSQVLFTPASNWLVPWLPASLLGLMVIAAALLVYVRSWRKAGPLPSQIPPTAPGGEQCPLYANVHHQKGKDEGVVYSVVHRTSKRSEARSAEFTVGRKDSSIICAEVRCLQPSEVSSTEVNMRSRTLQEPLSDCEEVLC

B1: murine monoclonal antibody anti-FcRH5-13G9 (antibody, V domains shown)
VH: EVQLVQSGPELKKPGETVKISCKASGYTFTNYGMNWVKQAPGKGLKWMGWVNTYTGEPTYTDDFKGRFAFSVETSASTVFLQINNLKNEDTATYFCARRSIPYYYAMDYWGQGTSLT
VL: DIVMTQSQKIMSTSVGDRVNVTCKASQNVGSNVAWYHQKPGQSPKALIYSASYRYSGVPDRFTGSGSGTDFTLTISNVQSEDLAEYFCQQYKTWTFGGGTKLEIKR
notes: Whole murine IgG from hybridoma; also called 13G9.1.1; mu13G9
- binding result [1]: no binding (tested: 1.0 ug per about 10^6 cells (p-1120))
- Kd [2]: 0.54 nM
- binding result [3]: no binding (tested: 1.0 ug per about 10^6 cells (p-1120))

Source: US20130089497A1 (Genentech, published 2013)
